From patent publication US20250171535A1, “COMPOSITIONS AND METHODS FOR DEPLETION OF DISEASED HEMATOPOIETIC STEM CELLS” (Jasper Therapeutics, Inc., priority 2022, published 2025) come the findings set out here.

The nature of data set [1]: Clinical study: safety and tolerability in higher risk MDS or AML patients. Particulars: 0.6 mg/kg intravenously. The format is in vivo, human. As to the method: (§1) Nine patients having either higher risk MDS or AML were treated with a single dose of 0.6 mg/kg JSP191 administered intravenously.
The subject of data set [2] is diseased HSC cells (CD34+CD45RA-CD117+ HSCs). Briefly: Clinical study: depletion of diseased stem and progenitor cells in higher risk MDS or AML patients. The format is in vivo, human. The conditions noted are these: nine higher risk MDS or AML patients; single dose 0.6 mg/kg intravenously; 10-14 days post-treatment. As to the method:
FIG. 2 is a bar graph of the percent (%) depletion of CD34+CD45RA-CD117+ cells in nine myelodysplastic syndrome (MDS) and acute myeloid leukemia (AML) patients treated with a single dose of anti-c-kit antibody, measured 10-14 days post-treatment.
as §1

As for “JSP191: aglycosylated IgG1 humanized anti-c-kit (CD117) antibody, humanized form of murine SR1; heavy chain SEQ ID NO: 2, light chain SEQ ID NO: 3”, in data set [1], the JSP191-related infusion reactions entry is given as “No significant JSP191-related infusion reactions were observed” and the adverse events result was “no significant adverse events were observed”. Also, in data set [1] (ongoing clinical trial), the safety and tolerability entry is “safe and well-tolerated”. Also, the “depletion of diseased HSC cells (CD34+CD45RA-CD117+ HSCs)” value in data set [2] is listed as 30-95%.
